Measurements published in the RNAGym collection of RNA variant scans (doi:10.1073/pnas.2313332121).
Fewer inactive variants are shown than the library holds.

B1: TPR 5TU (parent)
chain: GGAUCUUCUCGAUCUAACAAAAAAGACAAAUCUGCCACAAAGCUUGAGAGCAUCUUCGGAUGCAGAGGCGGCAGCCUUCGGUGGCGCGAUAGCGCCAACGUUCUCAACUAUGACACGCAAAACGCGUGCUCCGUUGAAUGGAGUUUAUCAUG

Variants of: B1
Experiment: polymerase ribozyme fitness, log enrichment relative to wild type (log ratio); higher = more active; in vitro selection for triplet polymerase activity
Method in brief: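 Fitness compares each genotype's enrichment to that of the wild type on a logarithmic scale, averaging replicates with inverse-variance weights. The logarithm is base 2. Enrichment came from Illumina sequencing of input and output libraries after one triplicate round of in vitro selection, which included frozen incubation at −7 °C, of PCR-built, transcribed mutant libraries of each subunit of a heterodimeric triplet polymerase ribozyme. Only genotypes with ≥10 input reads and ≥1 read per output were kept.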

**Q.** With A12C U13C A26C C27G G70A C96G as the variant, how does the “polymerase ribozyme fitness (log ratio)” value read?
**A.** ≤ -4.2

**Q.** For G11U A21U G74C G92U, which “polymerase ribozyme fitness (log ratio)” value is on record?
**A.** ≤ -4.2

**Q.** With C10G A26C C76A G83A as the variant, how does the “polymerase ribozyme fitness (log ratio)” value read?
**A.** ≤ -4.2

**Q.** Which “polymerase ribozyme fitness (log ratio)” value does the source give for G11U C14G A20G C27G A52U G80A A120U G141U U144G here?
**A.** ≤ -4.2

**Q.** Which “polymerase ribozyme fitness (log ratio)” value does the source give for G11U U104G here?
**A.** -1.58

**Q.** For C10G C32A G58U G59U U130C, which “polymerase ribozyme fitness (log ratio)” value is on record?
**A.** ≤ -4.2

**Q.** For C10A A29C U44G G58A A60G A97U G141C, which “polymerase ribozyme fitness (log ratio)” value is on record?
**A.** ≤ -4.2

**Q.** Which “polymerase ribozyme fitness (log ratio)” value does the source give for C10A A12U A47U C93G A137G here?
**A.** ≤ -4.2

**Q.** With C10U C93U as the variant, how does the “polymerase ribozyme fitness (log ratio)” value read?
**A.** -4.06

**Q.** For A12G A39C G84A A138C G143U U148C, which “polymerase ribozyme fitness (log ratio)” value is on record?
**A.** ≤ -4.2

**Q.** Which “polymerase ribozyme fitness (log ratio)” value does the source give for A12C C27U C35U A52C C75A A115C here?
**A.** ≤ -4.2

**Q.** For A12C A30G C38A C51A U56G C85G C95U A106G U111A, which “polymerase ribozyme fitness (log ratio)” value is on record?
**A.** ≤ -4.2

**Q.** With G11C A41C C95A U146G as the variant, how does the “polymerase ribozyme fitness (log ratio)” value read?
**A.** -3.34

**Q.** With G11U A23U G68A U130G U135C as the variant, how does the “polymerase ribozyme fitness (log ratio)” value read?
**A.** ≤ -4.2

**Q.** Which “polymerase ribozyme fitness (log ratio)” value does the source give for C10U A20U C57A U145C here?
**A.** -3.45

**Q.** Which “polymerase ribozyme fitness (log ratio)” value does the source give for G11C U53A C72G C79A U82A U90G A106C here?
**A.** ≤ -4.2

**Q.** With C10U A22U A29G U61A C95G as the variant, how does the “polymerase ribozyme fitness (log ratio)” value read?
**A.** -4

**Q.** For A12G A17U A49G A60G A91G, which “polymerase ribozyme fitness (log ratio)” value is on record?
**A.** -2.9

**Q.** For G11U A40U G84A A110G, which “polymerase ribozyme fitness (log ratio)” value is on record?
**A.** -3.56

**Q.** For A12G A37C C87U G92A A119U G136A, which “polymerase ribozyme fitness (log ratio)” value is on record?
**A.** -0.359

**Q.** Which “polymerase ribozyme fitness (log ratio)” value does the source give for C10G A39U G84A here?
**A.** ≤ -4.2

**Q.** Which “polymerase ribozyme fitness (log ratio)” value does the source give for C10G C69G G83C here?
**A.** ≤ -4.2

**Q.** With G11C C32U C69A A121G as the variant, how does the “polymerase ribozyme fitness (log ratio)” value read?
**A.** -4.12

**Q.** For A12C G58A G84U A115U, which “polymerase ribozyme fitness (log ratio)” value is on record?
**A.** -3.83

**Q.** For A12C C99U C105G, which “polymerase ribozyme fitness (log ratio)” value is on record?
**A.** ≤ -4.2

**Q.** Which “polymerase ribozyme fitness (log ratio)” value does the source give for C10A U13G G25C G34U U61A C63U G68C U77C C79A G86A here?
**A.** ≤ -4.2

**Q.** With C10U C105A as the variant, how does the “polymerase ribozyme fitness (log ratio)” value read?
**A.** -3.59

**Q.** For C10A U53A C85A C96G G100A U127C U146A, which “polymerase ribozyme fitness (log ratio)” value is on record?
**A.** ≤ -4.2

**Q.** Which “polymerase ribozyme fitness (log ratio)” value does the source give for G11U G42A G50A C54A C95U G124A here?
**A.** ≤ -4.2

**Q.** For C10A G59A A91U U111A U127C A138U A150G, which “polymerase ribozyme fitness (log ratio)” value is on record?
**A.** ≤ -4.2

**Q.** Which “polymerase ribozyme fitness (log ratio)” value does the source give for G11C U55A C76G G140U here?
**A.** ≤ -4.2

**Q.** Which “polymerase ribozyme fitness (log ratio)” value does the source give for G11U C38A A40C U53A G58A here?
**A.** -3.76

**Q.** Which “polymerase ribozyme fitness (log ratio)” value does the source give for G11A C51U G81C G92A U151A here?
**A.** ≤ -4.2

**Q.** Which “polymerase ribozyme fitness (log ratio)” value does the source give for A12C G50A G59C G92U here?
**A.** -2.67

**Q.** With G11C C38A G59A C125G as the variant, how does the “polymerase ribozyme fitness (log ratio)” value read?
**A.** -2.58

**Q.** Which “polymerase ribozyme fitness (log ratio)” value does the source give for C10U A22G U44A G100U C103A here?
**A.** ≤ -4.2

**Q.** Which “polymerase ribozyme fitness (log ratio)” value does the source give for G11C G50A U56A G83U C93A U127C U135C here?
**A.** ≤ -4.2

**Q.** Which “polymerase ribozyme fitness (log ratio)” value does the source give for C10G A64C C76A G92C U135A A138G U151G here?
**A.** ≤ -4.2

**Q.** For G11A G34C U56A C57U C99G A142C, which “polymerase ribozyme fitness (log ratio)” value is on record?
**A.** ≤ -4.2

**Q.** With G11U G50U G68A G84U C114U A115U G136A as the variant, how does the “polymerase ribozyme fitness (log ratio)” value read?
**A.** ≤ -4.2

**Q.** Which “polymerase ribozyme fitness (log ratio)” value does the source give for C10G C85U here?
**A.** -3

**Q.** With C10G C85G G92A C125G as the variant, how does the “polymerase ribozyme fitness (log ratio)” value read?
**A.** ≤ -4.2

**Q.** With C10G A89G as the variant, how does the “polymerase ribozyme fitness (log ratio)” value read?
**A.** ≤ -4.2

**Q.** For G11A A26U G48A U109C A147G, which “polymerase ribozyme fitness (log ratio)” value is on record?
**A.** ≤ -4.2

**Q.** For A12G A40G U44A U45A C93G A120U G141U, which “polymerase ribozyme fitness (log ratio)” value is on record?
**A.** ≤ -4.2

**Q.** For C10G A37C G50A C95U C99A G143C, which “polymerase ribozyme fitness (log ratio)” value is on record?
**A.** ≤ -4.2

**Q.** Which “polymerase ribozyme fitness (log ratio)” value does the source give for G11A A41U A60G U77C C87A here?
**A.** ≤ -4.2

**Q.** With C10A C54U G67C C85A A107U as the variant, how does the “polymerase ribozyme fitness (log ratio)” value read?
**A.** ≤ -4.2

**Q.** With A12G A21C A23G C76G C116G G133A as the variant, how does the “polymerase ribozyme fitness (log ratio)” value read?
**A.** ≤ -4.2

**Q.** For C10G C75U, which “polymerase ribozyme fitness (log ratio)” value is on record?
**A.** -3.87

**Q.** With G11A C85A as the variant, how does the “polymerase ribozyme fitness (log ratio)” value read?
**A.** -2.76

**Q.** Which “polymerase ribozyme fitness (log ratio)” value does the source give for G11A C85U here?
**A.** -1.56

**Q.** With A12C A52C C87U A89C as the variant, how does the “polymerase ribozyme fitness (log ratio)” value read?
**A.** -3.43

**Q.** With G11A A39U as the variant, how does the “polymerase ribozyme fitness (log ratio)” value read?
**A.** -3.28

**Q.** With G11A C27G U53A G83U G86A G140A as the variant, how does the “polymerase ribozyme fitness (log ratio)” value read?
**A.** ≤ -4.2

**Q.** For C10U U78A G86A A107G G124A G140A G141C, which “polymerase ribozyme fitness (log ratio)” value is on record?
**A.** ≤ -4.2

**Q.** Which “polymerase ribozyme fitness (log ratio)” value does the source give for C10G C38U G50A U90A U127C G128U U145A here?
**A.** ≤ -4.2

**Q.** With G11U C14G A26G U33G C57A C99G A120G as the variant, how does the “polymerase ribozyme fitness (log ratio)” value read?
**A.** ≤ -4.2

**Q.** For A12C C76A A91U, which “polymerase ribozyme fitness (log ratio)” value is on record?
**A.** ≤ -4.2

**Q.** For G11U U13G G62U C69U G81A C87U, which “polymerase ribozyme fitness (log ratio)” value is on record?
**A.** ≤ -4.2

**Q.** Which “polymerase ribozyme fitness (log ratio)” value does the source give for C10U A40G G50U C79G C99U C108G G117A here?
**A.** ≤ -4.2

**Q.** For C10U A39C C57A G59C A66U G67U G81A C85G C105A U135C G140C G143C, which “polymerase ribozyme fitness (log ratio)” value is on record?
**A.** ≤ -4.2

**Q.** With A12C C43U A52C G84U C93G C132G as the variant, how does the “polymerase ribozyme fitness (log ratio)” value read?
**A.** ≤ -4.2

**Q.** For G11A A21U C87A, which “polymerase ribozyme fitness (log ratio)” value is on record?
**A.** ≤ -4.2

**Q.** Which “polymerase ribozyme fitness (log ratio)” value does the source give for C10A A12G A60G C93A here?
**A.** ≤ -4.2

**Q.** Which “polymerase ribozyme fitness (log ratio)” value does the source give for A12C A21C A23C G136A here?
**A.** ≤ -4.2

**Q.** With C10U A40G as the variant, how does the “polymerase ribozyme fitness (log ratio)” value read?
**A.** -4.12

**Q.** For C10A C63U G67A U77C G92A U127C U135G, which “polymerase ribozyme fitness (log ratio)” value is on record?
**A.** ≤ -4.2

**Q.** With C10G C18G A21C G25A G65A C79A U104G as the variant, how does the “polymerase ribozyme fitness (log ratio)” value read?
**A.** ≤ -4.2

**Q.** Which “polymerase ribozyme fitness (log ratio)” value does the source give for G11A A12U C51G U55G G62C U90C C108G here?
**A.** ≤ -4.2

**Q.** Which “polymerase ribozyme fitness (log ratio)” value does the source give for G11A U82A here?
**A.** -1.4

**Q.** For C10A C87U, which “polymerase ribozyme fitness (log ratio)” value is on record?
**A.** -3.47

**Q.** Which “polymerase ribozyme fitness (log ratio)” value does the source give for A12C A24U A37G A52C C75U C93U here?
**A.** ≤ -4.2

**Q.** Which “polymerase ribozyme fitness (log ratio)” value does the source give for C10A C14U A26U A30G G84A U139G A142U here?
**A.** ≤ -4.2

**Q.** For U9G U55A C96G C116A, which “polymerase ribozyme fitness (log ratio)” value is on record?
**A.** -4.14

**Q.** For A12C A52C C54U C96A, which “polymerase ribozyme fitness (log ratio)” value is on record?
**A.** -3.95

**Q.** With C10G A28C C51U C87U G88A A91C G117C G124U U130G as the variant, how does the “polymerase ribozyme fitness (log ratio)” value read?
**A.** ≤ -4.2

**Q.** With C10A A23U G83U as the variant, how does the “polymerase ribozyme fitness (log ratio)” value read?
**A.** ≤ -4.2

**Q.** Which “polymerase ribozyme fitness (log ratio)” value does the source give for C10G U61C G86C C105G A119C here?
**A.** ≤ -4.2

**Q.** Which “polymerase ribozyme fitness (log ratio)” value does the source give for A12G C14A C38U C43A U56A C85U C103G here?
**A.** ≤ -4.2

**Q.** For U9G U61A C75U C85U G124C, which “polymerase ribozyme fitness (log ratio)” value is on record?
**A.** ≤ -4.2

**Q.** Which “polymerase ribozyme fitness (log ratio)” value does the source give for A12C A20C A26G here?
**A.** ≤ -4.2

**Q.** For A12C A16C U31C C32G U53A C93G C118G U151C, which “polymerase ribozyme fitness (log ratio)” value is on record?
**A.** ≤ -4.2
